Reference: the domain aggregation screens of Martell et al. (2025)

Experiment: soluble fraction after stress (log2 fold change); higher = more stays soluble; pooled small domains, quantitative proteomics
Details: stress: 75 degC
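Further: 20 min heating vs room temperature control held 20 min.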

Row | Sequence | soluble fraction (log2)
1 | HMKPTSLLGIERYLGSGLIRGVGPSTAKQIVEHFGMETMEVLTEHPERLQEVHGMGRKRWRQIAESFQEQQ | -0.869
2 | HMTGLRETIPAALDGERLDRVVALLGDVSRSRASAALEAERVTLDGEVVTLRSHRVREGEELTVAGFE | 0.417
3 | HMEVEADEFQQLLRSGEYVQALDRARANQDIGLRQQQIVQIARHQAASGIQAGAMGSLASLYQF | -0.0286
4 | HMSNIIIYPNPTNDGLIHIKGSKFPFNYALYNLSGKLIETGKKNQIQLNDRGVYLLKIQTEGQTYFKKII | -0.16
5 | HMGIQQNHMTLHARSVASSANVPAEHFDTLVEKLIESGDIKVWKAREILMNLSRQHEEILDES | -0.789
6 | HMNTKQRTAVMRILKQSSDPVSADDVFAALKDEYPSLALSTVYRNLERFADESMVKKDVWSDGIVRYSLAD | -0.21
7 | HMILPKFNQLLGQMGENIKLARKRRKLTAVQVSERAGIARSTLYLIEKGDASVSLGAYFNVLRVLG | -1.67
8 | HMVTVPNYSDPRQYVEWGNANGITINRAVGDTIASMSGRVQDVRDSNGNSVIGKKVKKGSTVTVYIYFLK | -1.08
9 | HMPTSILEKILNSAAEQFTRYGFKTITMDDIARHAGVSKKTLYQHFETKLDIIVAAVTHFHTMKF | -1.62
10 | HMLQVSDENFVVELVQKVLLDNPSSVQEYKNGKESVLQFLIGQAMKASKGTANPQIVKEIMLKLL | -0.68
11 | HMARTIINLPLRNSVDESYNTTVNILQANGFKEVSYNGETVWKKGTGLLTAMQYIKIEFTDTTLVVSGWVQ | ≥ 1.04
12 | HMSMANKKDFILDTAQKLFMEQGFDQTSISQILEATQIARGTLYYYFSSKEEIMDAIIERTIEQ | -0.966
13 | HMTGRHEEAIQELKRTLELHPQKPKIFLLLGVSYLRLNNLKKAVEAFNTVLLLQPKNQKALTMLKEIKKR | -0.178
14 | HMDSSLVWVDYLLGSKLTKLNSSNELTGPGASAKTIGAFLGENKQSFDLYIESVHNARDTYSDILTHGT | -0.186
15 | HMRLIDVFELSPKNRTVLQLYYYEGYSVTEISKILKISVNGVTSRLSRARSKLKLEMEAAENE | -0.577
16 | HMENTFNENLRRIRKEKKITQEQLAEFVGVSPQAVSKWEMNSFPDASLLPKIAEKLEVSIDELFGLK | 0.205
17 | HMYYNDEELDGYRGTPSDAYSDNAVEEFREVLYTLREDEVSGWVRSLQLRGIFLPDAIKDETFLI | -1.33
18 | HMEPELLTTKQVASVMNIGEERARAILLSRGVQPVSLPWGKERKTLRWSRRAVMTVIDTLHAEAQAKAGV | -2.59
19 | HMNVNSMIGKEGRVIEDIDNFNETGRIIVDGMEWTARAVNEQSITSGQKVVIREIQGVKAMVVPM | 0.115
20 | HMNNVRIEHIDTIGTVRLHKKRGVKRVSLRIHQSGEIRVTQPLYLPFSAGVLFAKSHTEWIMKQKQK | 0.0763
21 | HMKAERLLALLTILLSGKRVSARWLSEELEVSERTVYRDVEALSEAGFPVYATTGRDGGFSLIDGF | -2.01
22 | HMQMTKSEFLDALRRALNGNMAAASVDDNIRFYDSYFYTEETKGRSEAEILSELGDPRILARTLIDAAD | -0.0328
23 | HMLPANGEAIYHYLASGAIKGVGPVTAQRIVDKFGEDTFDVLENNPLWLAEIKGITRKTAENIGAAFAAQF | 0.631
24 | HMLQEFTLELATAVVQEFRDQPGALINALHKLQETFGYVDEAAMPVLARLFNLSRAEVHGVASFYHDFRRS | -1.67
25 | HMRKAERHLLIKQVIDEFTIRTQEELLAKLSDYGVNATQATISRDIRDLKIVKAPDENGISRFVFF | -1.73
26 | HMEWTDHLAEELRSLAVEGEHLEIIANKLGISPGSARAKLVNLNIYNDYQLAHIERLEADTLQAK | -0.349
27 | HMNKITIEEAKSIALKHSNLDESQVSFIRSEYDFDNGIEKYEIEFYYNNNKYEYEINAKTGDIISYDYDI | -1.02
28 | HMNTLPASVQPKKGRLYAVIQTKENGKSKPVWRSLGLPEGSNKSKVNKAFREVVKQFEEEYAERLAR | -0.181
29 | HMQETILFGQQKAINNLSSDTGLSENDLDSYLKKRYKKPLYQLTQSEGADIINGFQDGSLSKNSILDYIKP | 0.173
30 | HMTTVDYDALRAAILQQVVSEDTTPALTTENTEIKYKFKFGLDTWVDLDGGKIAPAVSAKSYEIQISFKG | 0.185
